Patent US20180312587A1 (ADURO BIOTECH HOLDINGS EUROPE B V, published 2018)

What was measured:
[1] = molecular target: T1, human SIRPγ (human, UniProt Q9P1W8 29-387); test: CELISA, CHO-K1 transfectants; extrapolated
T1 construct: on transfected CHO-K1 cells; also called hSIRPγ
Procedure: Binding of the humanized antibodies to hSIRPα was studied in CELISA format. Binding of the hSIRPα antibodies to human SIRPαV1, SIRPαV2, hSIRPβ1, and hSIRPγ was confirmed using CHO-K1 cells that had been transiently transfected with cDNA encoding the full length open reading frame of each of these respective targets subcloned into the pCI-neo vector. CHO-K1.hSIRPαV1, CHO-K1.hSIRPαV2, CHO-K1.hSIRPβ1, and CHO-K1.hSIRPγ cells were seeded in culture medium (DMEM-F12 (Gibco) supplemented with 5% New Born Calf Serum (BioWest) and Pen/Strep (Gibco)) in 96-well flat-bottom tissue culture plates and incubated at 37° C., 5% CO₂ and 95% humidity until cell layers were confluent. Subsequently, culture medium was removed and cells were incubated for 1 hour at 37° C., 5% CO₂ and 95% humidity with purified hSIRPα antibodies (10 μg/mL and dilutions thereof). Next, cells were washed with PBS-T and incubated for 1 hour at 37° C., 5% CO₂ and 95% humidity with goat-anti-human IgG-HRP conjugate (Jackson Immuno Research) or goat-anti-mouse IgG-HRP (Southern Biotech). Subsequently, cells were washed three times with PBS-T and anti-hSIRPα immunoreactivity was visualized with TMB Stabilized Chromogen (Invitrogen). Reactions were stopped with 0.5 M H₂SO₄ and absorbances were read at 450 and 610 nm. […] In Table 13 the EC50 values of the humanized hSIRPα antibodies are depicted.
Table 13: Binding of humanized and parental hSIRPα.50A antibodies to CHO-K1.hSIRPαV1, CHO-K1.hSIRPαV2, CHO-K1.hSIRPβ1, and CHO-K1.hSIRPγ cells.

[2] = molecular target: T2, human SIRPα variant 1 (human, UniProt P78324 31-504); test: flow cytometry, blockade of DyLight488-hCD47/Fc binding to U-937 cells
T2 construct: full length ORF on transfected CHO-K1 or HEK293 cells; entry includes the signal peptide; also called hSIRPαV1; SIRPαV1
Procedure: For this purpose, THP-1 (ATCC TIB-202) and U-937 (ATCC CRL-1593.2) monocyte cell lines were used as the source of hSIRPα in the assay. THP-1 and U-937 cells were seeded in 96-well round bottomed tissue culture plates and incubated for 45 minutes with FcR Blocking Reagent (Miltenyi Biotec) and hSIRPα.50A antibody (200 μg/mL and dilutions thereof) in PBS/1% BSA at 4° C. […] After this labeling procedure, cells were washed two times, resuspended in PBS/1% BSA containing 0.1 μg/mL DAPI (BioLegend), and analysed by flow cytometry on the FACSCanto II (BD Biosciences). Data were processed and analysed with FlowJo V10 software (FlowJo, LLC).
As depicted in FIG. 4 and the following Table 11, binding of recombinant hCD47 fused to an Fc domain of human IgG1 was monitored in the presence of increasing amounts of the hSIRPα.50A antibody. Antibody hSIRPα.50A blocked the hSIRPα/hCD47 interaction, using the flow cytometry-based method described above. […] IC50 values represent the concentration at which half of the inhibition is observed.

[3] = molecular target: T3, hSIRP-VβC1γC2β (human, UniProt O00241 30-398); test: CELISA, CHO-K1 transfectants, domain exchange study; nd = not detected
T3 chain: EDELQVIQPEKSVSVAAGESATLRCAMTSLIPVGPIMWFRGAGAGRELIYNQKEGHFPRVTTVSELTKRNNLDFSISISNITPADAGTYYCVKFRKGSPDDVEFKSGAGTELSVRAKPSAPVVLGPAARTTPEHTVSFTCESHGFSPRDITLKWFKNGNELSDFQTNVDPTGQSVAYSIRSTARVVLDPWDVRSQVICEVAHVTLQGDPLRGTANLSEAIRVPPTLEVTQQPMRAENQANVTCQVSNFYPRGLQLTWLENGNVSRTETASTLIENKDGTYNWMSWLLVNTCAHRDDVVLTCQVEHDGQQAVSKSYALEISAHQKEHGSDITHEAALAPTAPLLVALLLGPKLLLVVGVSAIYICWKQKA
From the text: Based on the fold of SIRPα/β1/γ, the extracellular region can be subdivided into three separate domains: the Ig-like (immunoglobulin-like) V-type (IgV), Ig-like C1-type (IgC1), and Ig-like C2-type (IgC2) domain. The IgV domain is also known as the ligand-binding N-terminal domain of SIRPα and SIRPγ (which binds to CD47). The human SIRPβ1/γ mutants were designed based on the full length hSIRPβ1 sequence (SEQ ID NO: 38) and each individual Ig-like domain was substituted for the equivalent domain of human SIRPγ (SEQ ID NO: 40). […] Binding of hSIRPα.40A to the exchange mutants was tested using CELISA. To this end, CHO-K1 cells were transiently transfected, using Lipofectamine 2000, with the pCI-neo vectors encoding hSIRPαV1, hSIRPαV2, hSIRPβ1, hSIRP-VγC1βC2β, hSIRP-VβC1γC2β, and hSIRP-VβC1βC2γ, respectively. The transfected cells were cultured at 37° C., 5% CO₂ and 95% humidity in medium (DMEM-F12 (Gibco) with 5% New Born Calf serum (Biowest) and Pen/Strep (Gibco)) until confluent. Subsequently, cells were trypsinized and seeded in 96-well flat-bottom tissue culture plates and cultured at 37° C., 5% CO₂ and 95% humidity in culture medium until confluent. […] Reactions were stopped with 0.5 M H₂SO₄ and absorbances were read at 450 and 610 nm.

T1 sequence (Q9P1W8 29-387 limits assumed): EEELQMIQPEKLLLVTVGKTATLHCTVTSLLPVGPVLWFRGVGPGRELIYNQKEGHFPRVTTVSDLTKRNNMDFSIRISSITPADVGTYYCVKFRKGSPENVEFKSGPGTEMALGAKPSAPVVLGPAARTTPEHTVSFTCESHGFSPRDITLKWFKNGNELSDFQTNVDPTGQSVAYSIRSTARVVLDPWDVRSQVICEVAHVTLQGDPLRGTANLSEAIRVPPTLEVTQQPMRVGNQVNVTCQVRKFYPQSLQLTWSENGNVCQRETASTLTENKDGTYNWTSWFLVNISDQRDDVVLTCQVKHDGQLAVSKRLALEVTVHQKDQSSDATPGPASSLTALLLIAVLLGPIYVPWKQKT
T2 sequence (P78324 31-504 limits assumed, change not shown): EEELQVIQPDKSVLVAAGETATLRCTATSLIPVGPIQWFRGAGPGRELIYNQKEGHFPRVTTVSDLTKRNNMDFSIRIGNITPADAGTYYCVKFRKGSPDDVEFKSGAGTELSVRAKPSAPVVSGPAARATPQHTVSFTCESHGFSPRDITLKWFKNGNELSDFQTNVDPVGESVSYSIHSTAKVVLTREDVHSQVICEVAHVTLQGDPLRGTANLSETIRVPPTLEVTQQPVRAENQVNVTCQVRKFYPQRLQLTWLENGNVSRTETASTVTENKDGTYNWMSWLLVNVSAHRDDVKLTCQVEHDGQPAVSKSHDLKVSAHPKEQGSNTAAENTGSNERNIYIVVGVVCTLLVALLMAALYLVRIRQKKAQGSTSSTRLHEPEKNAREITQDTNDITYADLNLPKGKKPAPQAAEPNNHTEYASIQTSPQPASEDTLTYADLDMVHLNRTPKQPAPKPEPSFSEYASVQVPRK

EC50 [1]: 1.25 nM | IC50 [2]: 7.16 nM | binding result [3]: no binding
B1: hSIRPα.50A (antibody, V domains shown)
VH: QVQLQQSGPELVKPGASVRISCKASGFTFTNYYIHWVKQRPGQGLEWIGWIYPGNVNTKYNEKFKAKATLTADKSSTTAYMQLSSLASEDSAVYFCARPTIIATDFDVWGAGTTVTVSS
VL: DIVMTQSHKFMSTSVGDRVNITCKASQGVGTAVGWYQQKPGQSPRLLIYWASTRHTGVPDRFTGSGSGTDFSLAISNVQSEDLADYFCQQYSTYPFTFGGGTNLEIK
notes: light chain constant domain not tied; also called mouse hSIRPα.50A; hSIRPα.50A.mIgG1
